From patent US9260500B2, “Peptide and use thereof” (Takeda Pharmaceutical Company Limited, priority 2009, dated 2016)
Non-standard residues stand in square brackets, D forms with d. Phe(3-Me) = Cc1cccc(C[C@H](N)C(=O)O)c1; 1Nal = N[C@@H](Cc1cccc2ccccc12)C(=O)O; Phe(2-Me) = Cc1ccccc1C[C@H](N)C(=O)O; 4Pal = N[C@@H](Cc1ccncc1)C(=O)O; Cha = N[C@@H](CC1CCCCC1)C(=O)O; dIva = CC[C@@](C)(N)C(=O)O; Iva = CC[C@](C)(N)C(=O)O; Nle = CCCC[C@H](N)C(=O)O; Aib = CC(C)(N)C(=O)O

Tests used:
human Y2 receptor [1] = target: T1, human Y2 receptor (Homo sapiens, UniProt P49146); assay: Receptor Binding Assay (RBA) for Human Y2, [125I]-PYY displacement on hY2R/CHO membrane fraction; conditions: IC50 of test compound/IC50 of PYY(3-36) (PYY(3-36) taken as 1)
T1 construct: expressed in transfected cells; membrane fraction
T1 sequence (P49146 1-381): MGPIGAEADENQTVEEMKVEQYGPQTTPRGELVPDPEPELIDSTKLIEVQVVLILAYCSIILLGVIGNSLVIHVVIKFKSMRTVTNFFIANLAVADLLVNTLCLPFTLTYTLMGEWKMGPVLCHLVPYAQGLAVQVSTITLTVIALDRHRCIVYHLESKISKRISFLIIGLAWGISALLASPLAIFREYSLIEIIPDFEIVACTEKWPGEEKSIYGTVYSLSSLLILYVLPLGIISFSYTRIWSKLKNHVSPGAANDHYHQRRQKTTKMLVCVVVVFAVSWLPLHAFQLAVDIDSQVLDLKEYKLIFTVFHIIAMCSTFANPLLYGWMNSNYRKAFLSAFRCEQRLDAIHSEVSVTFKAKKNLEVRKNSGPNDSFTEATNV
Procedure, shortened: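 Read-out is [125I]-PYY displacement from membranes of CHO/dhfr− cells stably transfected with human Y2R. Membranes were obtained by disrupting cells in a buffer of 10 mM NaHCO3, 5 mM EDTA and protease inhibitors.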

human Y2 receptor [2] = target: T1, human Y2 receptor; assay: Human Y2 Receptor G Protein Binding Assay (GBA), [35S]GTPγS; assay type: biochemical; conditions: EC50 of test compound/EC50 of PYY(3-36) (PYY3-36 taken as 1), hY2R/CHO membrane fraction
Procedure, shortened: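 Agonism measured as [35S]GTPγS binding, read by GF/C filtration and scintillation counting after 120 min at room temperature, using human Y2 membranes at 1 μg protein/mL in pH 7.4 Tris/MgCl2/NaCl/GDP buffer. Compound serially diluted 100 μM–1 nM; EC50 normalized to PYY(3-36) (ratio = compound/PYY).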

| Substance | RBA IC50 Ratio (human Y2 receptor [1]) | GBA EC50 Ratio (human Y2 receptor [2]) |
| --- | --- | --- |
| Ac-[D-Pro24, Pya(4)26, Cha27,36, Aib28,31, Lys30]-PYY(24-36) (Ac-[dP]R[4Pal][Cha][Aib]NK[Aib]TRQR[Cha]-NH2; SMILES CC(=O)N1CCC[C@@H]1C(=O)N[C@@H](CCCNC(=N)N)C(=O)N[C@@H](Cc1ccncc1)C(=O)N[C@@H](CC1CCCCC1)C(=O)NC(C)(C)C(=O)N[C@@H](CC(N)=O)C(=O)N[C@@H](CCCCN)C(=O)NC(C)(C)C(=O)N[C@H](C(=O)N[C@@H](CCCNC(=N)N)C(=O)N[C@@H](CCC(N)=O)C(=O)N[C@@H](CCCNC(=N)N)C(=O)N[C@@H](CC1CCCCC1)C(N)=O)[C@@H](C)O) [compound No. 251] | 0.68 | 0.56 |
| Ac-[D-Pro24, Pya(4)26, Cha27,36, Aib28,31, Lys(Ac)30]-PYY(23-36) [compound No. 278] | 0.97 | 1.1 |
| Ac-[D-Pro24, Pya(4)26, Cha27,36, Aib28,31, Lys(Hexyl)30]-PYY(23-36) [compound No. 279] | 1.0 | 1.3 |
| Ac-[D-Pro24, Pya(4)26, Cha27,36, Aib28,31, Lys(Me2)30]-PYY(23-36) [compound No. 264] | 1.1 | 1.7 |
| Ac-[D-Pro24, Pya(4)26, Cha27,36, Aib28,31, Nle30]-PYY(23-36) (Ac-S[dP]R[4Pal][Cha][Aib]N[Nle][Aib]TRQR[Cha]-NH2; SMILES CCCC[C@H](NC(=O)[C@H](CC(N)=O)NC(=O)C(C)(C)NC(=O)[C@H](CC1CCCCC1)NC(=O)[C@H](Cc1ccncc1)NC(=O)[C@H](CCCNC(=N)N)NC(=O)[C@H]1CCCN1C(=O)[C@H](CO)NC(C)=O)C(=O)NC(C)(C)C(=O)N[C@H](C(=O)N[C@@H](CCCNC(=N)N)C(=O)N[C@@H](CCC(N)=O)C(=O)N[C@@H](CCCNC(=N)N)C(=O)N[C@@H](CC1CCCCC1)C(N)=O)[C@@H](C)O) [compound No. 267] | 0.96 | 1.4 |
| Ac-[D-Pro24, Pya(4)26, Cha27,36, Aib28,31, Orn30]-PYY(23-36) [compound No. 206] | 1.5 | 0.83 |
| Ac-[D-Pro24, Pya(4)26, Cha27,36, Aib28,31, Trp30]-PYY(23-36) (Ac-S[dP]R[4Pal][Cha][Aib]NW[Aib]TRQR[Cha]-NH2; SMILES CC(=O)N[C@@H](CO)C(=O)N1CCC[C@@H]1C(=O)N[C@@H](CCCNC(=N)N)C(=O)N[C@@H](Cc1ccncc1)C(=O)N[C@@H](CC1CCCCC1)C(=O)NC(C)(C)C(=O)N[C@@H](CC(N)=O)C(=O)N[C@@H](Cc1c[nH]c2ccccc12)C(=O)NC(C)(C)C(=O)N[C@H](C(=O)N[C@@H](CCCNC(=N)N)C(=O)N[C@@H](CCC(N)=O)C(=O)N[C@@H](CCCNC(=N)N)C(=O)N[C@@H](CC1CCCCC1)C(N)=O)[C@@H](C)O) [compound No. 205] | 2.5 | 2.4 |
| Ac-[D-Pro24, Pya(4)26, Cha27,36, Aib28, Lys30, Iva31]-PYY(23-36) (Ac-S[dP]R[4Pal][Cha][Aib]NK[Iva]TRQR[Cha]-NH2; SMILES CC[C@](C)(NC(=O)[C@H](CCCCN)NC(=O)[C@H](CC(N)=O)NC(=O)C(C)(C)NC(=O)[C@H](CC1CCCCC1)NC(=O)[C@H](Cc1ccncc1)NC(=O)[C@H](CCCNC(=N)N)NC(=O)[C@H]1CCCN1C(=O)[C@H](CO)NC(C)=O)C(=O)N[C@H](C(=O)N[C@@H](CCCNC(=N)N)C(=O)N[C@@H](CCC(N)=O)C(=O)N[C@@H](CCCNC(=N)N)C(=O)N[C@@H](CC1CCCCC1)C(N)=O)[C@@H](C)O) [compound No. 231] | 0.85 | 2.1 |
| Ac-[D-Pro24, Pya(4)26, Cha27,36, D-Iva28,31, Lys30]-PYY(23-36) (Ac-S[dP]R[4Pal][Cha][dIva]NK[dIva]TRQR[Cha]-NH2; SMILES CC[C@@](C)(NC(=O)[C@H](CC1CCCCC1)NC(=O)[C@H](Cc1ccncc1)NC(=O)[C@H](CCCNC(=N)N)NC(=O)[C@H]1CCCN1C(=O)[C@H](CO)NC(C)=O)C(=O)N[C@@H](CC(N)=O)C(=O)N[C@@H](CCCCN)C(=O)N[C@](C)(CC)C(=O)N[C@H](C(=O)N[C@@H](CCCNC(=N)N)C(=O)N[C@@H](CCC(N)=O)C(=O)N[C@@H](CCCNC(=N)N)C(=O)N[C@@H](CC1CCCCC1)C(N)=O)[C@@H](C)O) [compound No. 247] | 0.70 | 1.6 |
| Ac-[D-Pro24, Pya(4)26, Cha27,36, D-Iva28, Lys30, Aib31]-PYY(23-36) (Ac-S[dP]R[4Pal][Cha][dIva]NK[Aib]TRQR[Cha]-NH2; SMILES CC[C@@](C)(NC(=O)[C@H](CC1CCCCC1)NC(=O)[C@H](Cc1ccncc1)NC(=O)[C@H](CCCNC(=N)N)NC(=O)[C@H]1CCCN1C(=O)[C@H](CO)NC(C)=O)C(=O)N[C@@H](CC(N)=O)C(=O)N[C@@H](CCCCN)C(=O)NC(C)(C)C(=O)N[C@H](C(=O)N[C@@H](CCCNC(=N)N)C(=O)N[C@@H](CCC(N)=O)C(=O)N[C@@H](CCCNC(=N)N)C(=O)N[C@@H](CC1CCCCC1)C(N)=O)[C@@H](C)O) [compound No. 234] | 1.7 | 2.6 |
| Ac-[D-Pro24, Pya(4)26, Cha27,36, D-Iva28, Lys30, Iva31]-PYY(23-36) (Ac-S[dP]R[4Pal][Cha][dIva]NK[Iva]TRQR[Cha]-NH2; SMILES CC[C@@](C)(NC(=O)[C@H](CC1CCCCC1)NC(=O)[C@H](Cc1ccncc1)NC(=O)[C@H](CCCNC(=N)N)NC(=O)[C@H]1CCCN1C(=O)[C@H](CO)NC(C)=O)C(=O)N[C@@H](CC(N)=O)C(=O)N[C@@H](CCCCN)C(=O)N[C@@](C)(CC)C(=O)N[C@H](C(=O)N[C@@H](CCCNC(=N)N)C(=O)N[C@@H](CCC(N)=O)C(=O)N[C@@H](CCCNC(=N)N)C(=O)N[C@@H](CC1CCCCC1)C(N)=O)[C@@H](C)O) [compound No. 248] | 3.4 | 1.1 |
| Ac-[D-Pro24, Pya(4)26, Cha27,36, Iva28,31, Lys30]-PYY(23-36) (Ac-S[dP]R[4Pal][Cha][Iva]NK[Iva]TRQR[Cha]-NH2; SMILES CC[C@](C)(NC(=O)[C@H](CC1CCCCC1)NC(=O)[C@H](Cc1ccncc1)NC(=O)[C@H](CCCNC(=N)N)NC(=O)[C@H]1CCCN1C(=O)[C@H](CO)NC(C)=O)C(=O)N[C@@H](CC(N)=O)C(=O)N[C@@H](CCCCN)C(=O)N[C@@](C)(CC)C(=O)N[C@H](C(=O)N[C@@H](CCCNC(=N)N)C(=O)N[C@@H](CCC(N)=O)C(=O)N[C@@H](CCCNC(=N)N)C(=O)N[C@@H](CC1CCCCC1)C(N)=O)[C@@H](C)O) [compound No. 246] | 0.31 | 1 |
| Ac-[D-Pro24, Pya(4)26, Cha27, Aib28,31, Lys30, Phe(2Me)36]-PYY(23-36) (Ac-S[dP]R[4Pal][Cha][Aib]NK[Aib]TRQR[Phe(2-Me)]-NH2; SMILES CC(=O)N[C@@H](CO)C(=O)N1CCC[C@@H]1C(=O)N[C@@H](CCCNC(=N)N)C(=O)N[C@@H](Cc1ccncc1)C(=O)N[C@@H](CC1CCCCC1)C(=O)NC(C)(C)C(=O)N[C@@H](CC(N)=O)C(=O)N[C@@H](CCCCN)C(=O)NC(C)(C)C(=O)N[C@H](C(=O)N[C@@H](CCCNC(=N)N)C(=O)N[C@@H](CCC(N)=O)C(=O)N[C@@H](CCCNC(=N)N)C(=O)N[C@@H](Cc1ccccc1C)C(N)=O)[C@@H](C)O) [compound No. 257] | 1.0 | 0.98 |
| Ac-[D-Pro24, Pya(4)26, Cha27, Aib28,31, Lys30, Phe(3Me)36]-PYY(23-36) (Ac-S[dP]R[4Pal][Cha][Aib]NK[Aib]TRQR[Phe(3-Me)]-NH2; SMILES CC(=O)N[C@@H](CO)C(=O)N1CCC[C@@H]1C(=O)N[C@@H](CCCNC(=N)N)C(=O)N[C@@H](Cc1ccncc1)C(=O)N[C@@H](CC1CCCCC1)C(=O)NC(C)(C)C(=O)N[C@@H](CC(N)=O)C(=O)N[C@@H](CCCCN)C(=O)NC(C)(C)C(=O)N[C@H](C(=O)N[C@@H](CCCNC(=N)N)C(=O)N[C@@H](CCC(N)=O)C(=O)N[C@@H](CCCNC(=N)N)C(=O)N[C@@H](Cc1cccc(C)c1)C(N)=O)[C@@H](C)O) [compound No. 260] | 0.91 | 1.2 |
| Ac-[D-Pro24, Pya(4)26, Nal(1)27, Aib28,31, Lys30, Cha36]-PYY(23-36) (Ac-S[dP]R[4Pal][1Nal][Aib]NK[Aib]TRQR[Cha]-NH2; SMILES CC(=O)N[C@@H](CO)C(=O)N1CCC[C@@H]1C(=O)N[C@@H](CCCNC(=N)N)C(=O)N[C@@H](Cc1ccncc1)C(=O)N[C@@H](Cc1cccc2ccccc12)C(=O)NC(C)(C)C(=O)N[C@@H](CC(N)=O)C(=O)N[C@@H](CCCCN)C(=O)NC(C)(C)C(=O)N[C@H](C(=O)N[C@@H](CCCNC(=N)N)C(=O)N[C@@H](CCC(N)=O)C(=O)N[C@@H](CCCNC(=N)N)C(=O)N[C@@H](CC1CCCCC1)C(N)=O)[C@@H](C)O) [compound No. 306] | 2.9 | 1.7 |
